Measured values taken from patent publication US10464978B2, “Peptides and combination of peptides for use in immunotherapy against ovarian cancer and other cancers” (immatics biotechnologies GmbH, priority 2015, dated 2019).

Biological target: HLA-A*02:01 (Homo sapiens, UniProt P04439, D140Y/D185E/D98H/E176V/E277Q/G131W/G231S/I119V/I121R/I166T/I218V/L300P/L318F/N151K/N90K/P208A/P217A/Q86G/Q94H/R138H/R169H/T345S)
Experiment: MHC binding assay: UV-ligand exchange with beta2m ELISA (peptide exchange yield)
Settings: binding to HLA-A*02:01
Method in brief: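 Peptide-MHC complexes formed by UV-ligand exchange, a UV-cleavable peptide being replaced by the candidate peptide. Exchange products diluted 100-fold, captured on streptavidin-coated plates for 1h at 37° C, then detected with 2 ug/ml HRP anti-β2m (1h, 37° C) and TMB, absorbance 450 nm; value is exchange yield.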

Peptide exchange (MHC class I binding score, peptide exchange yield)	Substance
“+++” (≥50 = +++)	238 (YLISFQTHI; listed as Homo sapiens) [compound 238]
“++” (≥20% = ++)	333 (FLPDANSSV; listed as Homo sapiens) [compound 333]
“+++” (≥50 = +++)	468 (YLRSVGDGETV; listed as Homo sapiens) [compound 468]
“++” (≥20% = ++)	43 (VLSSLEINI; listed as Homo sapiens) [compound 43]
“++” (≥20% = ++)	400 (SLLTEQDLWTV; listed as Homo sapiens) [compound 400]
“++” (≥20% = ++)	499 (KIFDIDEAEEGV; listed as Homo sapiens) [compound 499]
“+++” (≥50 = +++)	616 (VLIDEVESL; listed as Homo sapiens) [compound 616]
“++++” (≥75% = ++++)	10 (FLATFPLAAV; listed as Homo sapiens) [compound 10]
“+++” (≥50 = +++)	594 (IMLKGDNITL; listed as Homo sapiens) [compound 594]
“++” (≥20% = ++)	63 (YLLPSGGSVTL; listed as Homo sapiens) [compound 63]
“+++” (≥50 = +++)	48 (ALAELYEDEV; listed as Homo sapiens) [compound 48]
“++++” (≥75% = ++++)	196 (YLYSVEIKL; listed as Homo sapiens) [compound 196]
“+++” (≥50 = +++)	481 (GLIEDYEALL; listed as Homo sapiens) [compound 481]
“+++” (≥50 = +++)	169 (NLPEYLPFV; listed as Homo sapiens) [compound 169]
“+++” (≥50 = +++)	171 (LLLPLQILL; listed as Homo sapiens) [compound 171]
“+++” (≥50 = +++)	40 (TLLVKVFSV; listed as Homo sapiens) [compound 40]
“++++” (≥75% = ++++)	371 (FLQAHLHTA; listed as Homo sapiens) [compound 371]
“++” (≥20% = ++)	210 (LLLNAVLTV; listed as Homo sapiens) [compound 210]
“+++” (≥50 = +++)	26 (ALLELAEEL; listed as Homo sapiens) [compound 26]
“++” (≥20% = ++)	32 (KLDDLTQDLTV; listed as Homo sapiens) [compound 32]
“+++” (≥50 = +++)	129 (GLLDGGVDILL; listed as Homo sapiens) [compound 129]
“++” (≥20% = ++)	574 (YLLQEPPRTV; listed as Homo sapiens) [compound 574]
“+++” (≥50 = +++)	160 (FLFDEEIEQI; listed as Homo sapiens) [compound 160]
“+++” (≥50 = +++)	95 (SVIPQIQKV; listed as Homo sapiens) [compound 95]
“+++” (≥50 = +++)	249 (LLDGFLVNV; listed as Homo sapiens) [compound 249]

Peptide exchange (MHC class I binding score, peptide exchange yield)	Substance
“++++” (≥75% = ++++)	348 (ILLDVKTRL; listed as Homo sapiens) [compound 348]
“+++” (≥50 = +++)	462 (KLAKQPETV; listed as Homo sapiens) [compound 462]
“++++” (≥75% = ++++)	621 (VLMDRLPSLL; listed as Homo sapiens) [compound 621]
“+++” (≥50 = +++)	70 (GLLDYPVGV; listed as Homo sapiens) [compound 70]
“++++” (≥75% = ++++)	339 (GLWEIENNPTVKA; listed as Homo sapiens) [compound 339]
“+++” (≥50 = +++)	619 (ALQDRVPLA; listed as Homo sapiens) [compound 619]
“+++” (≥50 = +++)	263 (LLVSNLDFGV; listed as Homo sapiens) [compound 263]
“+++” (≥50 = +++)	479 (SLFGNSGILENV; listed as Homo sapiens) [compound 479]
“+++” (≥50 = +++)	67 (TLLAEALVTV; listed as Homo sapiens) [compound 67]
“+++” (≥50 = +++)	495 (FIFSEKPVFV; listed as Homo sapiens) [compound 495]
“+++” (≥50 = +++)	167 (KVLEVTEEFGV; listed as Homo sapiens) [compound 167]
“+++” (≥50 = +++)	556 (FLTDLEDLTL; listed as Homo sapiens) [compound 556]
“++” (≥20% = ++)	226 (MLYVVPIYL; listed as Homo sapiens) [compound 226]
“+++” (≥50 = +++)	317 (SLAALVVHV; listed as Homo sapiens) [compound 317]
“+++” (≥50 = +++)	493 (GLLGEKTQDLIGV; listed as Homo sapiens) [compound 493]
“+++” (≥50 = +++)	264 (SLQEQLHSV; listed as Homo sapiens) [compound 264]
“+++” (≥50 = +++)	316 (ILLERLWYV; listed as Homo sapiens) [compound 316]
“+++” (≥50 = +++)	142 (FLFATPVFI; listed as Homo sapiens) [compound 142]
“++” (≥20% = ++)	459 (ALITEVVRL; listed as Homo sapiens) [compound 459]
“+++” (≥50 = +++)	597 (KLLEGQVIQL; listed as Homo sapiens) [compound 597]
“++++” (≥75% = ++++)	108 (ALFPGVALLLA; listed as Homo sapiens) [compound 108]
“+++” (≥50 = +++)	322 (TLMTSLPAL; listed as Homo sapiens) [compound 322]
“+++” (≥50 = +++)	588 (SLLPLSHLV; listed as Homo sapiens) [compound 588]
“+++” (≥50 = +++)	542 (RVWDISTVSSV; listed as Homo sapiens) [compound 542]
“+++” (≥50 = +++)	487 (LLINSVFHV; listed as Homo sapiens) [compound 487]
